Patent US8951750B2 (BASF SE, priority 2007, dated 2015)
Read-outs that look alike come from different tables or passages of the source.

Columns and labels:
[1] = tested on: AMDase from Mesorhizobium sp. BNC1; test: BTB activity assay, alkenyl-substituted substrates of formula I; type: biochemical; conditions: 30° C.
Experimental: (§1) This method involves measuring spectrophotometrically at 620 nm the change of yellow colour to green/blue of pH indicator—BTB with increasing concentration of [OH^−] formed during the decarboxylation reaction. […] More concentrated buffer (10 mM) gives better results with higher concentration of enzyme or quicker reactions since changes of colour are slower due to higher buffer capacity.
(§2) All kinetics assays were performed on an Anthos Zenyth 3100 96-well microplate reader. 10 μl of 20-500 mM phenylmalonate or methyl-phenylmalonate solution (pH adjusted to 7.2) was added to 180 μl of 5-10 mM MOPS buffer pH 7.2 containing 0.0186 mM bromothymol blue. The reaction was initiated by addition of 10 μl of decarboxylase solution (0.002-0.02 mM, final concentration). The sensitivity of the reaction depends on the concentration of buffer, lower concentrations give higher sensitivity. The values of KM and kcat were calculated from spectophotometrical measurements at 620 nm of the resulting blue solution using Lineweaver-Burk plot and the following equations: […]
A BTB activity assay was performed as described above. Compounds of formula I, wherein R^2 is methyl and R^1 is phenyl, ethenyl, propen-1-yl, buten-1-yl or 2-methylpropen-1-yl were tested as substrates.

[2] = tested on: CC(C)=CC(C)(C(=O)O)C(=O)O; test: purified protein, by the assay type; conditions: other: 30° C., BTB assay, pH 7.2
Experimental: (§3) All kinetics assays were performed on an Anthos Zenyth 3100 96-well microplate reader. […] The reaction was initiated by addition of 10 μl of decarboxylase solution (0.002-0.02 mM, final concentration). The sensitivity of the reaction depends on the concentration of buffer, lower concentrations give higher sensitivity. The values of KM and kcat were calculated from spectophotometrical measurements at 620 nm of the resulting blue solution using Lineweaver-Burk plot and the following equations:
C=CC(C)(C(=O)O)C(=O)O = test: purified protein, by the assay type; conditions: other: 30° C., BTB assay, pH 7.2
Experimental: as §3

[3] = tested on: CC/C=C/C(C)(C(=O)O)C(=O)O; test: purified protein, by the assay type; conditions: other: 30° C., BTB assay, pH 7.2
Experimental: as §3
C/C=C/C(C)(C(=O)O)C(=O)O = test: purified protein, by the assay type; conditions: other: 30° C., BTB assay, pH 7.2
Experimental: as §3

[4] = BTB spectrophotometric assay of kinetic constants, substrate phenylmalonate; type: biochemical; conditions: for Km / kcat: substrate 2-phenylmalonic acid (1), His6-tagged enzyme, BTB method; for decarboxylase activity in words: substrate phenylmalonate 1, purified enzymes
Experimental: as §1, §2

[5] = In vivo plate assay for AMDase activity (BTB), substrate phenylmalonate; type: cell-based; conditions: E. coli expressing the enzyme
Experimental: Test Petri dishes were prepared using following medium: 1% tryptone, 0.5% yeast extract, 1% sodium chloride, 1% agar, 0.025% bromothymol blue (BTB). Then pH was adjusted to 6.5 and the medium autoclaved. When medium temperature reached 50-60° C. isopropyl-β-D-thiogalactopyranoside (1 mM, final concentration), kanamycin ([…], final concentration) and phenylmalonic acid (0.36%, final concentration) were added. 100 μl of liquid bacterial culture containing AMDase was plated on test Petri dishes. After 2-3 days of incubation at 37° C. the colonies and surrounding area changed colour to green-blue indicating AMDase activity.

[6] = BTB spectrophotometric assay of kinetic constants, substrate 2-methyl-2-phenylmalonate; type: biochemical; conditions: for reaction with 2-methyl-2-phenylmalonic acid (2) (cell spans Km, kcat, kcat/Km) / Km / kcat: substrate 2-methyl-2-phenylmalonic acid (2), BTB method; for Km / kcat: His6-tagged enzyme
Experimental: as §1, §2

[7] = In vitro decarboxylation of 2-methyl-2-phenylmalonate to 2-phenylpropanoic acid; type: biochemical; conditions: for absolute configuration of the product: 2-phenylpropionate product
Experimental: [formula] [formula] [formula] h) In Vitro Decarboxylation of 2-methyl-2-phenylmalonate to 2-phenylpropanoic Acid by AMDase from Bordetella bronchiseptica and Asp/Glu Racemase from Mesorhizobium sp. BNC1.
To 400 μl of 0.1 M TRIS buffer pH 8, 100 μl of 0.5 M water solution (after adjusting pH to 8) of 2-methyl-2-phenylmalonic acid was added. Then 20 μl of an AMDase solution (10 mg/mL) was added and the reaction was stirred at 30° C. for 8 h. Products were extracted with diethyl ether after acidifying with 1 M HCl and methylated with TMS-diazomethane. The reaction was analyzed by GC (conversion up to 95%) and 2-phenylpropanoic acid formation confirmed by GC-MS, ^1H NMR. Both enzyme products (after methylation) had the same configuration (the same peak on GC with chiral column, ee>99%). Thus according to the literature^7 absolute configuration of the product was R.

[8] = substrate 2-phenylmalonic acid (1); literature data (footnote a, ref 6); cited from earlier work
[9] = substrate 2-methyl-2-phenylmalonic acid (2); literature data (footnote a, ref 6); cited from earlier work

C=CC(C)(C(=O)O)C(=O)O [compound 3, 2-methyl-2-vinylmalonic acid] gave a Km [1] of 19.4 mM and a kcat [1] of 8.9 s⁻¹.

Work on “AMDase from Bordetella bronchiseptica KU1201 (Bordetella bronchiseptica)” yielded a Km [2] of 3.5 mM, a kcat [2] of 5.2 s⁻¹ and a kcat/Km [2] of 1500 M⁻¹ s⁻¹. It also gave a Km (C=CC(C)(C(=O)O)C(=O)O) of 7.8 mM, a kcat (C=CC(C)(C(=O)O)C(=O)O) of 42.8 s⁻¹ and a kcat/Km (C=CC(C)(C(=O)O)C(=O)O) of 5500 M⁻¹ s⁻¹. It also gave a Km [3] of 14.4 mM, a kcat [3] of 23.9 s⁻¹ and a kcat/Km [3] of 1600 M⁻¹ s⁻¹. For the same molecule, the Km (C/C=C/C(C)(C(=O)O)C(=O)O) was 12.8 mM, the kcat (C/C=C/C(C)(C(=O)O)C(=O)O) was 46.2 s⁻¹ and the kcat/Km (C/C=C/C(C)(C(=O)O)C(=O)O) was 3600 M⁻¹ s⁻¹.

B1: protein BAA30082.1 from Pyrococcus horikoshii OT3: Hypothetical arylmalonate decarboxylase [Pyrococcus horikoshii OT3], SEQ ID NO: 6 (protein, listed as Pyrococcus horikoshii)
chain: MYGWRRRIGLIVPSSNTTMEPEFWKMAPEGVSIHTARMRLREVTEESLLEMERHAKDAALELADAEVDVIVYGCTSGSLIKGKGYDKEIAKNLEEASGIKTITTSTAVLNALNTLDIQKVVVATPYIDSVNEREKEFLEANGIEVLRIKGLGIVKNTEIGRQEPWVAYKLALEVYTPEADGLFISCTNFRTIEIIDKLEVELGVPVVTSNQATMWYALKTMKVKEKYDMYGTLLKEKLLEHHHHHH
With B1 the Km [4] was 41.7 mM, the kcat [4] was 0.09 s⁻¹ and the “decarboxylase activity in words” value [4] was “very low levels of activity”. The “colour change of BTB indicator (decarboxylase activity)” value (“colour change of BTB indicator” for short) [5] was “only slow development of colour” and the “reaction with 2-methyl-2-phenylmalonic acid (2) (cell spans Km, kcat, kcat/Km)” value (“reaction” for short) [6] was “No reaction”.

B2: protein NP_888076.1 from Bordetella bronchiseptica RB50: Putative decarboxylase [Bordetella bronchiseptica RB50], SEQ ID NO: 8 (protein, listed as Bordetella bronchiseptica)
chain: MPTPTQMKTTARYRPYAWRAKVGLIVPSTNTINEPEFYRLAPDGVTIHTGRAINAGPATQENYDRMARGVLEAADLIKTAEVDVVAYGCTSGSIVCSLDELCDGMSERVGVPAIATAGAVVAALRALGVRRVAVGTPYIDFVNQREREFLEQYGFEVVSIEGMDLGHTQEERRDIGRVPPQSTFQLARDIDRPQAEAIFLSCTNLATLDMIERIENELGKPVVTSNQATFWACLRLLGLSCAIPGYGRLLTDCLAPITRASYALALEHHHHHH
With B2 the Km [4] was 10 mM, the kcat [4] was 12.4 s⁻¹ and the “decarboxylase activity in words” value [4] was “moderate activity”. The “reaction” value [6] was “No reaction”.

B3: protein EAN08019.1 from Mesorhizobium sp. BNC1: Asp/Glu racemase [Mesorhizobium sp. BNC1], SEQ ID NO: 4, shown to have AMDase activity (protein, listed as Mesorhizobium sp.)
chain: MSAEDPVIGLIVPPAAGLVPPEAVAMYPEVTFHASGLGLKEMTPCGYAGVIDLVGDHAERHAQAGAQAVALMGTSLSFFRGAAFNAELITHMSNRSGLPATTMSQAVVDELKSHGARRIAVVTAYRQDVNNLLAAFLNEHGIEARSLKSLGITSVADVAGTPAKRLLQLCKEAVHDAGPVDAVLISCGGLHTLDVIVDVEISTGLPVVTSATAGVRGAVGLLKRSAETAEHATSKFLTGRALEHHHHHH
For B3, the “absolute configuration of the product” value [7] was “R-configuration”, the “ee of 2-phenylpropanoic acid product” value ([7]; GC with chiral column after methylation) was > 99% and the Km [4] was 9.6 mM. The kcat [4] was 118 s⁻¹, the “decarboxylase activity in words” value [4] was “very efficient decarboxylase activity” and the “decarboxylase activity in words” value ([6]; substrate 2-methyl-2-phenylmalonate 2, purified enzymes) was “very efficient decarboxylase activity”. For the same molecule, the Km [6] was 22.2 mM and the kcat [6] was 55.8 s⁻¹.

B4: AMDase from Bordetella bronchiseptica: arylmalonate decarboxylase from Bordetella bronchiseptica, SEQ ID NO: 2, Blast entry BAA02419.1 (protein, listed as Bordetella bronchiseptica)
chain: MQQASTPTIGMIVPPAAGLVPADGARLYPDLPFIASGLGLGSVTPEGYDAVIESVVDHARRLQKQGAAVVSLMGTSLSFYRGAAFNAALTVAMREATGLPCTTMSTAVLNGLRALGVRRVALATAYIDDVNERLAAFLAEESLVPTGCRSLGITGVEAMARVDTATLVDLCVRAFEAAPDSDGILLSCGGLLTLDAIPEVERRLGVPVVSSSPAGFWDAVRLAGGGAKARPGYGRLFDESLEHHHHHH
For B4, the “absolute configuration of the product” value [7] is listed as “R-configuration”, the Km [8] is listed as 13.9 mM and the kcat [8] is listed as “(353)^a ^ s^−1”. The Km [4] was 10.7 mM, the kcat [4] was 316.1 s⁻¹ and the Km [9] was 25.5 mM. For the same molecule, the kcat [9] was “(29.8)^a s^−1”, the “colour change of BTB indicator” value [5] was “clear change in colour from yellow to blue” and the Km [6] was 26.9 mM. It also gave a kcat [6] of 278.9 s⁻¹.

B5: protein ZP_00801202.1 from Alkaliphilus metalliredigenes QYMF: Asp/Glu racemase [Alkaliphilus metalliredigenes QYMF], SEQ ID NO: 10 (protein)
chain: MSDFSYGGRAKIGLIYPAPGWVMEPEFYLMAPWGVSTYTTRISLKHVNVAELRKLGDQSVEAAELLAQAPLDVIALGCTSGSFVNGSRYDQELIEKMEGVSGGIPCTTTSTAVVAALKALHVTKIAVATPYIDEVNLKAKNFLEAEGLDVVNIKGLGLLQDIEIDRQDMETVYRLAKEVDHVEAQAIVILCTGLRSVPIIEALENDLGKPVISAIQATFWHCLRLSGVRENVEGYGSLLRIEGLLEHHHHHH
modifications: Alkaliphilus metalliredigenes
With B5 the kcat [4] was 0.26 s⁻¹, the “decarboxylase activity in words” value [4] was “very low levels of activity” and the “colour change of BTB indicator” value [5] was “only slow development of colour”. The “reaction” value [6] was “No reaction”.
